Assay results reported in FireProtDB.

B1: Glutamate dehydrogenase, Q56304 (parent)
chain: MVEQDPFEIAVKQLERAAQYMDISEEALEFLKRPQRIVEVSIPVEMDDGSVKVFTGFRVQYNWARGPTKGGIRWHPEETLSTVKALAAWMTWKTAVMDLPYGGGKGGVICNPKEMSDREKERLARGYVRAIYDVISPYTDIPAPDVYTNPQIMAWMMDEYETISRRKDPSFGVITGKPPSVGGIVARMDATARGASYTVREAAKALGMDLKGKTIAIQGYGNAGYYMAKIMSEEYGMKVVAVSDSKGGIYNPDGLNADEVLAWKKKTGSVKDFPGATNITNEELLELEVDVLAPSAIEEVITKKNADNIKAKIVAELANGPTTPEADEILYEKGILIIPDFLCNAGGVTVSYFEWVQNITGDYWTVEETRAKLDKKMTKAFWDVYNTHKEKNINMRDAAYVVAVSRVYQAMKDRGWIKK
B2: Glutamate dehydrogenase, P96110 (parent)
chain: MPEKSLYEMAVEQFNRAASLMDLESDLAEVLRRPKRVLIVEFPVRMDDGHVEVFTGYRVQHNVARGPAKGGIRYHPDVTLDEVKALAFWMTWKTAVMNLPFGGGKGGVRVDPKKLSRNELERLSRRFFSEIQVIIGPYNDIPAPDVNTNADVMAWYMDTYSMNVGHTVLGIVTGKPVELGGSKGREEATGRGVKVCAGLAMDVLGIDPKKATVAVQGFGNVGQFAALLISQELGSKVVAVSDSRGGIYNPEGFDVEELIRYKKEHGTVVTYPKGERITNEELLELDVDILVPAALEGAIHAGNAERIKAKAVVEGANGPTTPEADEILSRRGILVVPDILANAGGVTVSYFEWVQDLQSFFWDLDQVRNALEKMMKGAFNDVMKVKEKYNVDMRTAAYILAIDRVAYATKKRGIYP
B3: Citrate synthase, mitochondrial, P00889 (parent)
chain: MALLTAAARLFGAKNASCLVLAARHASASSTNLKDILADLIPKEQARIKTFRQQHGNTVVGQITVDMMYGGMRGMKGLVYETSVLDPDEGIRFRGYSIPECQKMLPKAKGGEEPLPEGLFWLLVTGQIPTEEQVSWLSKEWAKRAALPSHVVTMLDNFPTNLHPMSQLSAAITALNSESNFARAYAEGIHRTKYWELIYEDCMDLIAKLPCVAAKIYRNLYREGSSIGAIDSKLDWSHNFTNMLGYTDAQFTELMRLYLTIHSDHEGGNVSAHTSHLVGSALSDPYLSFAAAMNGLAGPLHGLANQEVLVWLTQLQKEVGKDVSDEKLRDYIWNTLNSGRVVPGYGHAVLRKTDPRYTCQREFALKHLPHDPMFKLVAQLYKIVPNVLLEQGKAKNPWPNVDAHSGVLLQYYGMTEMNYYTVLFGVSRALGVLAQLIWSRALGFPLERPKSMSTDGLIKLVDSK
B4: Tetracycline repressor protein class D, P0ACT4 (parent)
chain: MARLNRESVIDAALELLNETGIDGLTTRKLAQKLGIEQPTLYWHVKNKRALLDALAVEILARHHDYSLPAAGESWQSFLRNNAMSFRRALLRYRDGAKVHLGTRPDEKQYDTVETQLRFMTENGFSLRDGLYAISAVSHFTLGAVLEQQEHTAALTDRPAAPDENLPPLLREALQIMDSDDGEQAFLHGLESLIRGFEVQLTALLQIVGGDKLIIPFC
B5: Subtilisin-chymotrypsin inhibitor-2A, P01053 (parent)
chain: MSSVEKKPEGVNTGAGDRHNLKTEWPELVGKSVEEAKKVILQDKPEAQIIVLPVGTIVTMEYRIDRVRLFVDKLDNIAQVPRVG
B6: Beta-lactoglobulin, P02754 (parent)
chain: MKCLLLALALTCGAQALIVTQTMKGLDIQKVAGTWYSLAMAASDISLLDAQSAPLRVYVEELKPTPEGDLEILLQKWENGECAQKKIIAEKTKIPAVFKIDALNENKVLVLDTDYKKYLLFCMENSAEPEQSLACQCLVRTPEVDDEALEKFDKALKALPMHIRLSFNPTQLEEQCHI
B7: Catalase-peroxidase 2, A4QUT2 (parent)
chain: MHASLSSWLLAASLLTQPISVSGQGCPFAKRDGTVDSSLPQKRADAPETTTFGRCAVKSNQAGGGTRSHDWWPCQLRLDVLRQFQPSQNPLGGDFDYAEAFQSLDYEAVKKDIAALMTESQDWWPADFGNYGGLFVRMAWHSAGTYRAMDGRGGGGMGQQRFAPLNSWPDNQNLDKARRLIWPIKQKYGNKISWADLMLLTGNVALENMGFKTLGFGGGRADTWQSDEAVYWGAETTFVPQGNDVRYNNSVDINARADKLEKPLAATHMGLIYVNPEGPNGTPDPAASAKDIREAFGRMGMNDTETVALIAGGHAFGKTHGAVKGSNIGPAPEAADLGMQGLGWHNSVGDGNGPNQMTSGLEVIWTKTPTKWSNGYLESLINNNWTLVESPAGAHQWEAVNGTVDYPDPFDKTKFRKATMLTSDLALINDPEYLKISQRWLEHPEELADAFAKAWFKLLHRDLGPTTRYLGPEVPKESFIWQDPLPAREGDLIDDADVDKLKAAILSTDGLDVSKLASTAMACATTYRNSDKRGGCNGARIALEPQRNWVSNNPTQLSAVLDALKKVQSDFNGSNGNKKVSLADLIVLGGTAAVEKAAKDAGVDIKVPFSAGRVDATQEQTDVTQFSYLEPQADGFRNYGRGTARARTEEIMVDKASQLTLTPPELTVLVGGMRALGANYDGSDVGVFTANKGKLTPDFFVNLVDMNIAWTASGADGESWVGTDRKSRSEKYKGSRADLVFGSHAELRAIAEVYAENGNQEKFVKDFVAAWTKVMNLDRFDLKVKK

Variants of: B1
Details: Thermococcus litoralis (strain ATCC 51850 / DSM 5473 / JCM 8560 / NS-C); pH 7; Thermal; DSC; diglycine 50 mM; KCl 700 mM; reversible: no; structure 1BVU; whole UniProt chain shown

Row | Variant | Tm [°C] | change of melting temperature, mutant - wild type (higher = more stable) [°C]
1 | T139E D168T | 112 | 2.5

Variants of: B2
Details: Thermotoga maritima (strain ATCC 43589 / DSM 3109 / JCM 10099 / NBRC 100826 / MSB8); pH 7.4; Thermal; DSC; Sodium phosphate 20 mM; reversible: no; structure 1B26; whole UniProt chain shown

Row | Variant | Tm [°C]
2 | S129R T159E S161E | 88
3 | T159E | 83.1
4 | N118R | 88.7
5 | S129R T159E N118R S161E | 88.3
6 | S129R T159E N118R | 89.6
7 | S129R | 87

Variants of: B3
Details: Sus scrofa; pH 7.5; Thermal; CD; Tris-HCl 5.0 mM; reversible: yes; structure 1CTS; whole UniProt chain shown

Row | Variant | Tm [°C] | change of melting temperature, mutant - wild type (higher = more stable) [°C]
8 | H301G | 56 | -1.9
9 | H301R | 56.8 | -1.1
10 | D402Q | 69 | 11.1
11 | D402G | 62.5 | 4.6

Variants of: B4
Details: Escherichia coli; pH 7.5; 22 °C; Urea; CD; Tris-HCl 50 mM; NaCl 150 mM; reversible: yes(92%); structure 2TRT; whole UniProt chain shown

Row | Variant | denaturant midpoint (higher = more stable) [M]
12 | R128E | 4.9

Variants of: B5
Details: Hordeum vulgare; pH 6.3; 25 °C; GdnHCl; Fluorescence; MES 50 mM; structure 2CI2; whole UniProt chain shown

Row | Variant | unfolding free energy [kcal/mol]
13 | P53E F70A | 2.61
14 | L21M | 7.3

Same assay, conditions: Hordeum vulgare; pH 4.2; 50 °C; GdnHCl; Fluorescence; Sodium acetate 50 mM; reversible: yes; structure 2CI2; whole UniProt chain shown

Row | Variant | ddG of mutation (higher = less stable) [kcal/mol] | unfolding free energy [kcal/mol]
15 | R68A | 1.4 | 4.1

Same assay, conditions: Hordeum vulgare; pH 7; 30 °C; GdnHCl; Fluorescence; MOPS 50 mM; structure 2CI2; whole UniProt chain shown

Row | Variant | ddG of mutation (higher = less stable) [kcal/mol] | denaturant m value [kcal/mol/M] | unfolding free energy [kcal/mol]
16 | I40V | 1.17 | 1.92 | 5.88
17 | I40L | 1.96 | 1.92 | 5.09

Variants of: B6
Details: Bos taurus; pH 7.1; 30 °C; GdnHCl; CD; phosphate 0.11 M; NaCl 0.04 M; structure 1B0O; whole UniProt chain shown

Row | Variant | ddG of mutation (higher = less stable) [kcal/mol] | unfolding free energy [kcal/mol]
18 | W35Y | 6.91 | 4.3

Variants of: B7
Details: Pyricularia oryzae (strain 70-15 / ATCC MYA-4617 / FGSC 8958); pH 7; Thermal; DSC; Phosphate buffer 5 mM; transition: 2; structure 5JHZ; whole UniProt chain shown

Row | Variant | Tm [°C]
19 | M299A | 48.2
20 | W140F | 44.8
21 | Y273F | 43.6
